Read-outs that look alike come from different tables or passages of the source.
Columns and labels:
[1] = biological target: T1, ErbB3 as used in the surface plasmon resonance (Flexchip) and KinExA assays (human, UniProt P21860 20-643, limits assumed); experiment: Kinetic Exclusion Assay (KinExA); KinExA
[2] = biological target: T2, ErbB3 receptor, wild type full length, on cells (MALME-3M, ADRr/AdrR, CHO K1 transfectants) (human, UniProt P21860 20-1342); experiment: flow cytometry on MALME-3M cells, Alexa 647 goat anti-human IgG, one-site binding fit
T2 construct: whole, on cells; also called HER3

[3] = biological target: T3, full-length ErbB3 L102A mutant on CHO K1 cells (human, UniProt P21860 20-1342); experiment: FACS on CHO K1 cells stably expressing full-length ErbB3 L102A; Ab #6 directly labelled with Alexa 488 (FL1)
T3 construct: whole, on cells; Numbering as for m15

[4] = biological target: T4, full-length ErbB3 D93A mutant on CHO K1 cells (human, UniProt P21860 20-1342); experiment: FACS on CHO K1 cells stably expressing full-length ErbB3 D93A; Ab #6 directly labelled with Alexa 488 (FL1)
T4 construct: whole, on cells

[5] = biological target: T2, ErbB3 receptor, wild type full length, …; experiment: cell binding assay, flow cytometry on MALME-3M cells, one-site binding fit
[6] = biological target: T1, ErbB3 as used in the surface plasmon …; experiment: surface plasmon resonance (Flexchip assay); Flexchip SPR, not KinExA
[7] = biological target: T1, ErbB3 as used in the surface plasmon …; experiment: Kinetic Exclusion Assay (KinExA); KinExA, not Flexchip SPR
[8] = biological target: T5, full-length ErbB3 Y104A mutant on CHO K1 cells (human, UniProt P21860 20-1342); experiment: FACS on CHO K1 cells stably expressing full-length ErbB3 Y104A; Ab #6 directly labelled with Alexa 488 (FL1)
T5 construct: whole, on cells; Numbering as for m15

[9] = biological target: T2, ErbB3 receptor, wild type full length, …; experiment: cell-based or functional assay
[10] = biological target: T2, ErbB3 receptor, wild type full length, …; experiment: flow cytometry on MALME-3M cells, Alexa 647 goat anti-human IgG, one-site binding fit; remark: listed apart in the source
[11] = biological target: T1, ErbB3 as used in the surface plasmon …; experiment: surface plasmon resonance (Flexchip assay); Flexchip SPR
[12] = biological target: T6, EGFR (ErbB1) on ADRr cells (human, UniProt P00533 25-1210); experiment: flow cytometry on ADRr cells, biotinylated BTC + streptavidin-PE; BTC concentration not printed on the sheet (legend paragraph 39 names 10 nM)
T6 construct: whole, on cells

[13] = biological target: T2, ErbB3 receptor, wild type full length, …; experiment: flow cytometry on MALME-3M cells (ErbB1 negative, ErbB3 positive), biotinylated BTC + streptavidin-PE
[14] = biological target: T2, ErbB3 receptor, wild type full length, …; experiment: flow cytometry, biotinylated heregulin EGF + streptavidin-PE; cells MALME3 according to the sheet's title and legend paragraph 42 (Example 10 names ADRr cells)
[15] = biological target: T2, ErbB3 receptor, wild type full length, …; experiment: flow cytometry on MALME-3M cells; Fab at about 500 nM; goat anti-human Alexa 647 secondary antibody
[16] = biological target: bovine serum albumin (BSA), unrelated protein control (bovine, UniProt P02769 25-607); experiment: ELISA on plate-coated protein, HRP anti-human IgG, chemiluminescence
TGF-α (control in ELISA) = biological target: T7, TGF-α (control in ELISA) (UniProt P01135 40-89); experiment: as above
T7 construct: also called transforming growth factor-α

[17] = biological target: recombinant human EGFR (coated on ELISA plate) (human, UniProt P00533 25-645, limits assumed); experiment: as above

bovine serum albumin (BSA), unrelated protein control, sequence (P02769 25-607 limits assumed): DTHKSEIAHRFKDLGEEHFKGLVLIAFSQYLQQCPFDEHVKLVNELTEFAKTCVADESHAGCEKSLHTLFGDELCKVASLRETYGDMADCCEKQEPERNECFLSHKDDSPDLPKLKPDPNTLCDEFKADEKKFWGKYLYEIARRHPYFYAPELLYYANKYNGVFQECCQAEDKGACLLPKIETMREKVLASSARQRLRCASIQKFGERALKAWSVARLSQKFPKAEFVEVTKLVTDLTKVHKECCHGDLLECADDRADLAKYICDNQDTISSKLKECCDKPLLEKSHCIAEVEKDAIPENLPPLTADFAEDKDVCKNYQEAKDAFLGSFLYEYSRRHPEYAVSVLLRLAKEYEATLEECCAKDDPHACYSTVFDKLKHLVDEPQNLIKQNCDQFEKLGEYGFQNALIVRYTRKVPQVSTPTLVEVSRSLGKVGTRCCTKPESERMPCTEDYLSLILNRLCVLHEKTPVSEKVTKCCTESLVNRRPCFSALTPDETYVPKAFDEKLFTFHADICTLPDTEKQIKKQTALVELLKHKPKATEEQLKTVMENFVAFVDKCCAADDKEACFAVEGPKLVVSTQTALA

B1: Antibody #6 (Ab #6), human anti-ErbB3 antibody (antibody, V domains shown)
VH: EVQLLESGGGLVQPGGSLRLSCAASGFTFSHYVMAWVRQAPGKGLEWVSSISSSGGWTLYADSVKGRFTISRDNSKNTLYLQMNSLRAEDTAVYYCTRGLKMATIFDYWGQGTLVTVSS
VL: QSALTQPASVSGSPGQSITISCTGTSSDVGSYNVVSWYQQHPGKAPKLIIYEVSQRPSGVSNRFSGSKSGNTASLTISGLQTEDEADYYCCSYAGSSIFVIFGGGTKVTVL
notes: also called antibody number 6; MM121
**Q.** With B1 as the binder, how does the koff [1] read?
**A.** Its koff is 0.00011 s⁻¹.

**Q.** And the kon [1]?
**A.** Its kon is 143000 M⁻¹ s⁻¹.

**Q.** And the “EC50 (read off the curve)” value [2]?
**A.** The value was 1 to 2 nM.

**Q.** Does B1 bind [3]?
**A.** Result: no binding

**Q.** Does B1 bind [4]?
**A.** Result: no binding

**Q.** What about the Kd [5] of the same binder?
**A.** The Kd was roughly 4 nM.

**Q.** What about the Kd [6] of the same binder?
**A.** The Kd was roughly 4 nM.

**Q.** What about the Kd [7] of the same binder?
**A.** Its Kd is 0.769 nM.

**Q.** Does B1 bind [8]?
**A.** Result: no binding

**Q.** And the “IC50 of inhibition of BTC-induced ErbB3 phosphorylation (ELISA, ADRr cells)” value [9]?
**A.** Its value is 5.9 nM.

**Q.** And the “IC50 of inhibition of HRG1-beta-induced ErbB3 phosphorylation (ELISA, ADRr cells)” value [9]?
**A.** The value was 2.4 nM.

B2: Antibody #3 (Ab #3), human anti-ErbB3 antibody (antibody, V domains shown)
VH: EVQLLESGGGLVQPGGSLRLSCAASGFTFSAYNMRWVRQAPGKGLEWVSVIYPSGGATRYADSVKGRFTISRDNSKNTLYLQMNSLRAEDTAVYYCARGYYYYGMDVWGQGTLVTVSS
VL: QSVLTQPPSASGTPGQRVTISCSGSDSNIGRNYIYWYQQFPGTAPKLLIYRNNQRPSGVPDRISGSKSGTSASLAISGLRSEDEAEYHCGTWDDSLSGPVFGGGTKLTVL
**Q.** What does the source list for B2?
**A.** EC50 (read off the curve) [10]: ~8 nM; Kd [5]: ~1.3 nM; Kd [11]: ~8 nM

B3: betacellulin (BTC) (ligand, UniProt P35070 32-111, looked up)
chain: DGNSTRSPETNGLLCGDPEENCAATTTQSKRKGHFSRCPKQYKHYCIKGRCRFVVAEQTPSCVCDEGYIGARCERVDLFY
modifications: biotinylated (Example 7)
notes: also called biotinylated BTC
**Q.** What does the source list for B3?
**A.** binding result [12]: binds; binding result [13]: no binding (tested: 500 nM)

B4: biotinylated heregulin EGF (ligand, UniProt Q02297-6 177-241, looked up)
chain: SHLVKCAEKEKTFCVNGGECFMVKDLSNPSRYLCKCPNEFTGDRCQNYVMASFYKHLGIEFMEAE
modifications: also: biotinylated, site not given here
notes: domain: heregulin EGF
**Q.** Does B4 bind [14]?
**A.** Result: binds

B5: Ab#14 (Fab, V domains shown)
VH: EVQLLESGGGLVQPGGSLRLSCAASGFTFSAYGMGWVRQAPGKGLEWVSYISPSGGHTKYADSVKGRFTISRDNSKNTLYLQMNSLRAEDTAVYYCAKVLETGLLVDAFDIWGQGTMVTVSS
VL: QYELTQPPSVSVYPGQTASITCSGDQLGSKFVSWYQQRPGQSPVLVMYKDKRRPSEIPERFSGSNSGNTATLTISGTQAIDEADYYCQAWDSSTYVFGTGTKVTVL
notes: also called Fab form of Ab #14; MM 121-14
**Q.** Does B5 bind [15]?
**A.** Result: binds

B6: Ab #6, IgG2 isotype (antibody, V domains shown)
VH: EVQLLESGGGLVQPGGSLRLSCAASGFTFSHYVMAWVRQAPGKGLEWVSSISSSGGWTLYADSVKGRFTISRDNSKNTLYLQMNSLRAEDTAVYYCTRGLKMATIFDYWGQGTLVTVSS
VL: QSALTQPASVSGSPGQSITISCTGTSSDVGSYNVVSWYQQHPGKAPKLIIYEVSQRPSGVSNRFSGSKSGNTASLTISGLQTEDEADYYCCSYAGSSIFVIFGGGTKVTVL
notes: Human IgG2; also called IgG2 isotype of Ab #6
**Q.** Does B6 bind [16]?
**A.** Result: no binding (tested: 1000 nM)

**Q.** Does B6 bind (TGF-α (control in ELISA))?
**A.** Result: no binding (tested: 1000 nM)

**Q.** Does B6 bind [17]?
**A.** Result: no binding (tested: 1000 nM)

From patent publication US20110123523A1 (MERRIMACK PHARMACEUTICALS, published 2011)
